In PMC7782793, “Hydroxamic acid-modified peptide microarrays for profiling isozyme-selective interactions and inhibition of histone deacetylases” (Nature Communications, 2021):
Starred links: 1 amine or outer side, 2 acyl side, 3 side chain; linkers in the order of their positions; H or OH if unused. Non-standard residues stand in square brackets, D forms with d. Primed or numbered codes have the meaning given here. No end group written: not given here. Asuha″ = L-2-amino-8-(hydroxyamino)-8-oxooctanoic acid, O=C(CCCCC[C@H](N[*:1])C(=O)[*:2])NO

Target: T1, HDAC6 (histone deacetylase 6) (human, UniProt Q9UBN7 1-1215)
T1 construct: HDAC6, human, full length; source: bought: BPS Bioscience, cat. #50056
T1 sequence (looked up): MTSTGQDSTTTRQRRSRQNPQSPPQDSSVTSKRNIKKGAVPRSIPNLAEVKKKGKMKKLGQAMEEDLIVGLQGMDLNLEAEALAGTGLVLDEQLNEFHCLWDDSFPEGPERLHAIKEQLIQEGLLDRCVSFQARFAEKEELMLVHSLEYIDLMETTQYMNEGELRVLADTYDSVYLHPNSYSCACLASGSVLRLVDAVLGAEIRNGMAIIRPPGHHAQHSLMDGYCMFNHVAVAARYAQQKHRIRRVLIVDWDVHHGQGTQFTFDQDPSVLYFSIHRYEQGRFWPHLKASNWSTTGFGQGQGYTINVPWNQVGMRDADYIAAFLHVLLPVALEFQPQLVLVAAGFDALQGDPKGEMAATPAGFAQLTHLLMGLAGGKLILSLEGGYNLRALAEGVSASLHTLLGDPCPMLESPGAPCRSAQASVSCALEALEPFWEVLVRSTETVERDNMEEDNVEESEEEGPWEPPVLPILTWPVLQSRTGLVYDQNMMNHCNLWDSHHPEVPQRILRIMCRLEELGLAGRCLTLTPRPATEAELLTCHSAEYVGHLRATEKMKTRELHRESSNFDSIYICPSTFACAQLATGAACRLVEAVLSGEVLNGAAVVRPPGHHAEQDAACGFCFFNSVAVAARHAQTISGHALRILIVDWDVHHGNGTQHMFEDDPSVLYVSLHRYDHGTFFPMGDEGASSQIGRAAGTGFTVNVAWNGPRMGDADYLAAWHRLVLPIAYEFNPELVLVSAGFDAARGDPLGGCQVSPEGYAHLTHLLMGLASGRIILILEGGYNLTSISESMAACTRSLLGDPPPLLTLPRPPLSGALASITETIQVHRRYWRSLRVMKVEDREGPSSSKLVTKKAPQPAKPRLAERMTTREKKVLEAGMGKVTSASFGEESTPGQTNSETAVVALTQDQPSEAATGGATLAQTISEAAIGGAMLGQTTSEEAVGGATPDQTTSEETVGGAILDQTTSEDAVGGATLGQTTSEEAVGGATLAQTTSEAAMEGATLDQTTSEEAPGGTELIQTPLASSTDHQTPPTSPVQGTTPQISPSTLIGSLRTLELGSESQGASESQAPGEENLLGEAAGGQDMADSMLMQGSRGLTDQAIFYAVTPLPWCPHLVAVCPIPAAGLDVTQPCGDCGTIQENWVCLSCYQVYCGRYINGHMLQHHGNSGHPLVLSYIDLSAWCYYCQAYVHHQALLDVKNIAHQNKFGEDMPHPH
Experiment: fluorogenic enzyme inhibition assay; peptide in 5-fold dilution series with enzyme and fluorogenic substrate (Ac-Leu-Gly-Lys(Ac)-AMC or Ac-Leu-Gly-Lys(Tfa)-AMC), HEPES buffer pH 7.4, 30 min, 37 °C, trypsin development; Ki by the Cheng-Prusoff equation
Details: both partners purified

B1: peptide 1a (parent H4K12 Asuha peptide) (peptide)
chain: KGGKGLG[Asuha″]GGAKRHR
- Ki: 5.31 ± 0.03 nM
